Assay [1] has as its target T1, 12-mer peptide of human IL13, YCAALESLINVS (human, synthesized via SPOT on cellulose membrane).
T1 peptide: YCAALESLINVS
Nature of the assay: peptide spot analysis on cellulose membrane. The text has this:
This epitope was further confirmed by peptide spot analysis. The entire human IL13 peptide was scanned with a series of overlapping 12-mer peptides synthesized via SPOT on cellulose membrane. The only anti-IL13 MAb reactive peptide was identified as a 12-mer peptide of amino acid #44-56, […] (SEQ ID NO 19), which is overlapping with the region identified through domain swapping experiments.

For assay [2], the target named is T2, human IL13 (human, UniProt P35225 35-146). Nature of the assay: cell-based or functional assay.
Assay [3] addresses T2, human IL13. Briefly: ELISA; wells coated with E. coli expressed non-glycosylated human IL13 (0.1 µg/mL); bound MAb detected with HRP-goat anti-mouse IgG (Fc); OD 450 nm. As to the method: (§1) The reactivity of various anti-IL13 monoclonal antibodies was tested by ELISA. Different wells of 96-well microtest plates were coated with either E. coli expressed non-glycosylated human IL13 (R&D Systems), 293T cell expressed glycosylated MT-IL13/Fc, or E. coli expressed mouse IL13 (R&D Systems) by the addition of 100 μL of IL13 protein at 0.1 μg/mL in PBS. After overnight incubation at room temperature, the wells were treated with PBSTB (PBST containing 2% BSA) to saturate the remaining binding sites. The wells were then washed with PBST.
(§2) One hundred microliters of two-fold serially diluted anti-IL13 MAbs (0.5 μg/mL (3.33 nM) to […] (0.00033 nM)) were added to the wells for 1 hour at room temperature. An anti-IL13 MAb JES-5A2 from (BD Biosciences-Pharmingen, San Diego, Calif.) was also tested as a positive control. This antibody was generated by using E. coli expressed human IL13 as immunogen. An isotype-matched mouse anti-HIV-1 gp120 MAb was used as irrelevant negative control. The wells were then washed with PBST. Bound antibody was detected by incubation with diluted HRP-goat anti-mouse IgG (Fc) (Jackson ImmunoResearch) for 1 hour at room temperature. Peroxidase substrate solution was then added for color development as described above. The OD₄₅₀ was measured using an ELISA reader.
For orientation: An ELISA detects its analyte on a solid surface through an enzyme-linked reagent.

Assay [4] concerns the target T3, IL-13 (antigen captured on the plate in the Fab ELISAs of Examples 9 and 10) (UniProt P35225 35-146).
T3 construct: also called the antigen IL-13
Briefly: ELISA; IL-13 captured on the plate in a limiting amount; Fab titrated 1:3; detected with a secondary antibody specific for Fab; A 560 nm.

Assay [5] concerns the target T3, IL-13 (antigen captured on the plate in …). Nature of the assay: ELISA; IL-13 captured on the plate in a limiting amount; Fab titrated 1:3; detected with a secondary antibody specific for Fab; A560 nm.
Assay [6] has the same target. Described as above. The source holds these as a separate data set.
Assay [7] shares this target. Briefly: ELISA; IL-13 captured on the plate in a limiting amount; Fab titrated 1:3; detected with a secondary antibody specific for Fab; A410 nm.
The target is the same in assay [8]. Briefly: ELISA; IL-13 captured on the plate in a limiting amount; Fab titrated 1:3; detected with a secondary antibody specific for Fab; A560 nm. This is another data set of the same source.
Assay [9] shares this target. Briefly: competition ELISA; IL-13 captured on the plate; purified Fab pre-mixed with a constant concentration of labeled chimeric anti-IL-13 Fab (228 B/C #3); Abs 590 nm of bound labeled Fab. As to the method: To confirm that these combinatorial candidates maintained function, a competition assay was performed. For this assay, IL-13 was captured on an ELISA plate. The candidates, which are purified Fabs, were pre-mixed in varying concentrations to a constant concentration of labeled chimeric anti-IL-13 Fab. This mixture was added to the ELISA plate. The labeled chimeric anti-IL-13 capable of binding to the plate-bound IL-13 were detected.

Assay [10] addresses T4, mouse IL13 (mouse, UniProt P20109 22-131, limits assumed).
T4 construct: also called E. coli expressed mouse IL13 (R&D Systems); murine IL13
T4 sequence: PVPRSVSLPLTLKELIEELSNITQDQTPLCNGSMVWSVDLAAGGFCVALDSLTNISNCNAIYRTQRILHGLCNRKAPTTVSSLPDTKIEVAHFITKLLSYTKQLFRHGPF
Nature of the assay: ELISA on plate-coated E. coli expressed mouse IL13. As to the method: as §1, §2

T3 sequence (P35225 35-146 limits assumed): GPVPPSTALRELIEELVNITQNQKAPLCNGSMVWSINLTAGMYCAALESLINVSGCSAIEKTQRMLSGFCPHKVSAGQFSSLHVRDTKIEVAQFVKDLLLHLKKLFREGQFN
T2 sequence (P35225 other isoform, or with tags, fused parts or gaps limits assumed): as the sequence (P35225 35-146 limits assumed) above, with Q110R counted along it

B1: anti-IL13 monoclonal antibody 228B/C-1 (antibody, V domains shown)
VH: QVQLQESGPGLVAPSQSLSITCTVSGFSLNAYSVNWVRQPPGKGLEWLGMIWGDGKIVYNSALKSRLNISKDSSKSQVFLKMSSLQSDDTARYYCAGDGYYPYAMDNWGHGTSVTVSS
VL: NIVLTQSPASLAVSLGQRATISCRASKSVDSYGNSFMHWYQQKPGQPPKLLIYLASNLESGVPARFSGSGSRTDFTLTIDPVEADDAASYYCQQNNEDPRTFGGGTKLEIK
As a reminder, the EC50 (read off the curve) is the concentration giving half of the maximal effect. Turning to B1, the binding result in [1] is listed as “binds”. Further, in assay [2], the “molar stoichiometric ratio (MAb:IL13) for complete inhibition, CD14 and CD23 assays” value is 0.5 MAb:IL13 molar ratio; the “molar stoichiometric ratio between 228B/C-1 and IL13 for complete inhibition, Stat6 assay” value is ~0.5 MAb:IL13 molar ratio. The half-maximal effective concentration (EC50 (read off the curve)) in [3] is about 0.01 nM.

B2: chimeric Fab of 228B/C (Fab, V domains shown)
VH: QVQLQESGPGLVAPSQSLSITCTVSGFSLNAYSVNWVRQPPGKGLEWLGMIWGDGKIVYNSALKSRLNISKDSSKSQVFLKMSSLQSDDTARYYCAGDGYYPYAMDNWGHGTSVTVSS
VL: NIVLTQSPASLAVSLGQRATISCRASKSVDSYGNSFMHWYQQKPGQPPKLLIYLASNLESGVPARFSGSGSRTDFTLTIDPVEADDAASYYCQQNNEDPRTFGGGTKLEIK
modifications: Used labeled in the competition assay of paragraph 260; the label is not named.
notes: also called chimeric clone
Turning to B2, the concentration for a half-maximal effect (EC50 (read off the curve)) is about 7 ng/mL in [4]; about 4 ng/mL in assay [5]; about 7 ng/mL in assay [6]; about 20 ng/mL in assay [7]; about 10 ng/mL in assay [8]. Further, in assay [9], the “IC50 (read off the curve)” value is about 90 ng/mL.

B3: anti-IL13 monoclonal antibody 227-26 (antibody, V domains shown)
VH: QVQLQQSGDDLVLPGASVKLSCKASGYTFTSYWINWIKQRPGQGLEWIGHIAPGSGSTYFNEMFKGKATLTVDTSSSTAYIQLSSLSSEDSAVYFCARSDIFLSYAMDYWGQGTSVTVSS
VL: DVLMTQTPLSLPVSLGDQASISCRSSQSIVHSNGNTYLQWYLQKPGQSPKLLIYKVSNRFSGVPDRFSGSGSGTDFTLKISRVEAEDLGVYYCFQGSHVPYTFGGGTKLEIK
notes: also called hybridoma ATCC PTA-5654
Turning to B3, the “EC50 (read off the curve)” value in assay [3] was about 0.02 nM. For the same molecule, the binding result in [10] is “no binding”.
